Experimental data from patent US20030022827A1.

Assays:
[1] = target: IL-10R subtype I, which consists of an IL-10R1 and an IL-10R2 (human) (UniProt Q13651); assay: cell-based or functional assay
IL-10R1 (human) = IL-10R1 (human) (UniProt Q13651); assay: cell-based or functional assay
Sequence of IL-10R1 (human) (Q13651 22-578): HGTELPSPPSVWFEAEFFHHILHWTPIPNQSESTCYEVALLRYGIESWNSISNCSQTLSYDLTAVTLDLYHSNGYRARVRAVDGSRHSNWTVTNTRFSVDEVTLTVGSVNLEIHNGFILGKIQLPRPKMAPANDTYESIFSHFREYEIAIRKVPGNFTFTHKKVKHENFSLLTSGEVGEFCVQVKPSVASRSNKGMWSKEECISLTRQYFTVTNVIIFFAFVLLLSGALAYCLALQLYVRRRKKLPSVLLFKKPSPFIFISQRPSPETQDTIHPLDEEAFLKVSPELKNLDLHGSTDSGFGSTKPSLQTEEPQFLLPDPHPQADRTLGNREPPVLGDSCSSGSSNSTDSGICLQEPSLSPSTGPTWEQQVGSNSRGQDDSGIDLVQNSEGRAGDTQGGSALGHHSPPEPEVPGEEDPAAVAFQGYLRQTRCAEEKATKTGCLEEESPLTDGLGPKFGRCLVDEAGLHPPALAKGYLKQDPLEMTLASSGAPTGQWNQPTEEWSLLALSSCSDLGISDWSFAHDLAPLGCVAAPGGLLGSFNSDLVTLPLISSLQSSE

Sequence of IL-10R subtype I, which consists of an IL-10R1 and an IL-10R2 (human) (Q13651 22-578, chain 1 of 2): as the sequence (Q13651 22-578) above
Sequence of IL-10R subtype I, which consists of an IL-10R1 and an IL-10R2 (human) (Q08334 20-325, chain 2 of 2, further chain): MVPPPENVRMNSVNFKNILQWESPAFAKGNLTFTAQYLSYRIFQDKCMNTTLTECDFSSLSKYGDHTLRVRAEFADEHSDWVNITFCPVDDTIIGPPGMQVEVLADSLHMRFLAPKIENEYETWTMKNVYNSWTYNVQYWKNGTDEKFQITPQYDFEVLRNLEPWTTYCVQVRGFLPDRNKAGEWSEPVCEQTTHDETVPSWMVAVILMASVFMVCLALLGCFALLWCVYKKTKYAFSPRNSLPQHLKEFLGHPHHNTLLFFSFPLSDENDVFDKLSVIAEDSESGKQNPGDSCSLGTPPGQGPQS

“Epstein-Barr virus-coded protein BCRF1 (from UniProt P03180 24-170) (ligand)” showed an expression of the low-affine IgG receptor CD16 on monocytes (flow cytometry) [1] of 30 to 100 ng/mL and an inhibition of LPS-induced TNF-α release of PBMC (ELISA of supernatant) (IL-10R1 (human)) of 3 ng/mL.
